Drawing on US20200010522A1 (SALUBRIS BIOTHERAPEUTICS, published 2020), this text covers Kd for one molecule.

In this test the target is T1, monkey HER3 antigen (monkey).
T1 construct: also called HER3 (monkey)
Briefly: BIAcore (SPR).

B1: anti-HER3 mAb/NRG-1 fusion protein (recombinant fusion protein, with Fc mutations) (antibody, human IgG1, kappa)
heavy: QVQLQQWGAGLLKPSETLSLTCAVYGGSFSGYYWSWIRQPPGKGLEWIGEINHSGSTNYNPSLKSRVTISVETSKNQFSLKLSSVTAADTAVYYCARDKWTWYFDLWGRGTLVTVSSASTKGPSVFPLAPSSKSTSGGTAALGCLVKDYFPEPVTVSWNSGALTSGVHTFPAVLQSSGLYSLSSVVTVPSSSLGTQTYICNVNHKPSNTKVDKRVEPKSCDKTHTCPPCPAPEFLGGPAVFLFPPKPKDTLMISRTPEVTCVVVDVSHEDPEVKFNWYVDGVEVHNAKTKPREEQYNSTYRVVSVLTVLHQDWLNGKEYKCKVSNKALPAPIEKTISKAKGQPREPQVYTLPPSREEMTKNQVSLTCLVKGFYPSDIAVEWESNGQPENNYKTTPPVLDSDGSFFLYSKLTVDKSRWQQGNVFSCSVMHEALHAHYTQKSLSLSPGKGGGGSGGGGSSHLVKCAEKEKTFCVNGGECFMVKDLSNPSRYLCKCPNEFTGDRCQNYVMASFYKAEELYQ
light: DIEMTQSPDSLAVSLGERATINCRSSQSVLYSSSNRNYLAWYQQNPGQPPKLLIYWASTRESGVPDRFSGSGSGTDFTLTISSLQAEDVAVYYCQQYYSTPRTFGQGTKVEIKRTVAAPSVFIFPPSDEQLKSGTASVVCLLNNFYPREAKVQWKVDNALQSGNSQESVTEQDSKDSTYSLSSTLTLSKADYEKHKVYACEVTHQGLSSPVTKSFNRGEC
notes: Made in CHO-derived HD-BIOP3 cells; also called the recombinant fusion protein disclosed herein; recombinant anti-HER3 mAb/NRG-1 fusion protein; copies: 2 + 2
The Kd is a measure of binding affinity in units of concentration. With B1, the affinity, expressed as Kd, was 397 pM.
